The target of the data set is T1, Bmara (homeobox protein araucan) (Bombyx mori, UniProt A0A8R1WJM2 5-477).
T1 sequence: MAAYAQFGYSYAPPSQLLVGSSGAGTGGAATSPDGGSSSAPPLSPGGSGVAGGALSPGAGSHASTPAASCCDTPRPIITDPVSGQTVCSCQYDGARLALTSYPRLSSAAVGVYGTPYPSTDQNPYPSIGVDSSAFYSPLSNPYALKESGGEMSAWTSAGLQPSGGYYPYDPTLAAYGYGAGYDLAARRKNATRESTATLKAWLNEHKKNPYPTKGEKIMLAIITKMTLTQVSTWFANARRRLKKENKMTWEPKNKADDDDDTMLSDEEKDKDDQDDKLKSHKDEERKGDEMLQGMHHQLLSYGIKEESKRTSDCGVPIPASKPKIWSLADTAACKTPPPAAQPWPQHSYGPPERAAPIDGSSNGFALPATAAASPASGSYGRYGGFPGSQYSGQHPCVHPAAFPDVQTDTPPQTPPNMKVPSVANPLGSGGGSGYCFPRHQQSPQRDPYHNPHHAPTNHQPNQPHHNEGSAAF
Put plainly: EMSA; 5 mM MgCl2, 4 mM EDTA; EMSA: 50 mM KCl, 5 mM MgCl2, 4 mM EDTA, 2.5% glycerol, 0.05% NP-40, 50 ng poly(dI-dC), 20 fmol probe, 20 uL, 20 min RT. Pull-down: 10 mM HEPES pH 7.6, 100 mM K. The note with it: protein: recombinant; tags: 6xHis (pET-28a/32a); label: 5' biotin; blunt.

B1: Wt CRE probe (BmCHT10 promoter -250 to -225; legend -250 to -221) (dsDNA)
DNA 1: TTCAGTCCACGGCTGTCTTTCAACACGGA
DNA 2: TCCGTGTTGAAAGACAGCCGTGGACTGAA
On to B1, for which the binding result is reported as “binds”.

B2: Mut-CRE probe (dsDNA)
DNA 1: TTCAGTCCACGGCGTGACTTTCGACCGGA
DNA 2: TCCGGTCGAAAGTCACGCCGTGGACTGAA
In the case of B2, the binding result is listed as “no binding”.

For the origin of these results see publication PMC7472703, “DNA methylation suppresses chitin degradation and promotes the wing development by inhibiting Bmara-mediated chitinase expression in the silkworm, Bombyx mori”.
